Experimental data taken from article PMC3014985.
Several values for one entry are separate records, joined by “and”; a condition that tells them apart may be missing. Identical values can stand only once. Like-named read-outs stand apart in the source and are kept apart here.

What was measured:
[1] = target: 6His-RVFV NP (Rift Valley fever virus nucleoprotein with N-terminal hexahistidine tag) (Rift Valley fever virus (strain Smithburn)) (UniProt P21700); assay: SEC
[2] = target: 6His-RVFV NP (Rift Valley fever virus nucleoprotein with N-terminal hexahistidine tag) (Rift Valley fever virus (strain Smithburn)) (UniProt P21700); assay: SEC; remark: listed apart in the source

“6His-RVFV NP (Rift Valley fever virus nucleoprotein with N-terminal hexahistidine tag) (from UniProt P21700 1-245) (natural protein)” was tested, and the stoichiometry N [1] was 3 and 2 and the stoichiometry N [2] was 4.3.
